Data from US20120302492A1.

Molecular target: GPIIb/IIIa protein (UniProt P08514)
Test: equal mix of wt and RGD1 phage bound to GPIIb/IIIa-coated plate, eluted, phagemid DNA analysis

B1: phage wtCD59 (CD59-gIII fusion protein displayed on phage) (protein, human, UniProt P13987 26-102, looked up, not shown: small tags and cut ends; large carriers)
chain: LQCYNCPNPTADCKTAVNCSSDFDACLITKAGLQVYNKCWKFEHCNFNDVTTRLRENELTYYCCKKDLCNFNEQLEN
  clones recovered among 12 picked after binding of an equal phage mix: 1 clones of 12
